Measurements published in publication PMC5865148 (Nature Communications, 2018).

What was measured:
Conditions in all cases: both partners purified
[1] = target: T1, soluble human BAFF (aa 134-285) N242A (human, UniProt Q9Y275 134-285, N242A); assay: SPR; about 1000 RU of belimumab Fab immobilised on a CM-5 chip by amine coupling; BAFF wild type or mutant flowed at 2 to 250 nM; 20 mM sodium citrate pH 5.6, 200 mM NaCl; 25 °C; BIAcore T100; sensorgrams locally fitted; in duplicate
T1 construct: also called BAFF N242A; source: E. coli BL21 (DE3), purified as described for wild-type BAFF; not shown: His6, N-terminal, cleaved

[2] = target: T2, soluble human BAFF (aa 134-285) R265A (human, UniProt Q9Y275 134-285, R265A); assay: as above
T2 construct: also called BAFF R265A; source: E. coli BL21 (DE3), purified as described for wild-type BAFF; not shown: His6, N-terminal, cleaved

[3] = target: T3, soluble human BAFF (aa 134-285) E266A (human, UniProt Q9Y275 134-285, E266A); assay: as above
T3 construct: also called BAFF E266A; source: E. coli BL21 (DE3), purified as described for wild-type BAFF; not shown: His6, N-terminal, cleaved

[4] = target: T4, soluble human BAFF (aa 134-285) Y163A (human, UniProt Q9Y275 134-285, Y163A); assay: as above
T4 construct: also called BAFF Y163A; source: E. coli BL21 (DE3), purified as described for wild-type BAFF; not shown: His6, N-terminal, cleaved

[5] = target: T5, soluble human BAFF (aa 134-285) Y206A (human, UniProt Q9Y275 134-285, Y206A); assay: as above
T5 construct: also called BAFF Y206A; source: E. coli BL21 (DE3), purified as described for wild-type BAFF; not shown: His6, N-terminal, cleaved

[6] = target: T6, soluble human BAFF (aa 134-285) D222A (human, UniProt Q9Y275 134-285, D222A); assay: as above
T6 construct: also called BAFF D222A; source: E. coli BL21 (DE3), purified as described for wild-type BAFF; not shown: His6, N-terminal, cleaved

[7] = target: T7, soluble human BAFF (aa 134-285) L224A (human, UniProt Q9Y275 134-285, L224A); assay: as above
T7 construct: also called BAFF L224A; source: E. coli BL21 (DE3), purified as described for wild-type BAFF; not shown: His6, N-terminal, cleaved

[8] = target: T8, soluble human BAFF (aa 134-285) R231A (human, UniProt Q9Y275 134-285, R231A); assay: as above
T8 construct: also called BAFF R231A; source: E. coli BL21 (DE3), purified as described for wild-type BAFF; not shown: His6, N-terminal, cleaved

[9] = target: T9, soluble human BAFF (aa 134-285) I233A (human, UniProt Q9Y275 134-285, I233A); assay: as above
T9 construct: also called BAFF I233A; source: E. coli BL21 (DE3), purified as described for wild-type BAFF; not shown: His6, N-terminal, cleaved

[10] = target: T10, soluble human BAFF (aa 134-285) L240A (human, UniProt Q9Y275 134-285, L240A); assay: as above
T10 construct: also called BAFF L240A; source: E. coli BL21 (DE3), purified as described for wild-type BAFF; not shown: His6, N-terminal, cleaved

[11] = target: T11, soluble form of human BAFF (aa 134–285) (human, UniProt Q9Y275); assay: SEC; analytical gel filtration, Superdex 200 Increase 10/300 GL, 20 mM HEPES pH 7.0, 200 mM NaCl; BAFF alone, Fab alone, and BAFF incubated 1 h with an excess of Fab
T11 construct: Cloned in pET-28a; On gel filtration it runs as trimer and as 60-mer (20 trimers); the trimer fractions were collected; also called BLyS; source: E. coli BL21 (DE3), purified (HisTrap, thrombin cleavage, gel filtration; trimer fractions collected); not shown: His6, N-terminal, cleaved

B1: belimumab Fab (Fab, V domains shown)
VH: QVQLQQSGAEVKKPGSSVRVSCKASGGTFNNNAINWVRQAPGQGLEWMGGIIPMFGTAKYSQNFQGRVAITADESTGTASMELSSLRSEDTAVYYCARSRDLLLFPHHALSPWGRGTMVTVSS
VL: SSELTQDPAVSVALGQTVRVTCQGDSLRSYYASWYQQKPGQAPVLVIYGKNNRPSGIPDRFSGSSSGNTASLTITGAQAEDEADYYCSSRDSSGNHWVFGGGTELTVLG
notes: followed by HHHHHH (the tag); Fab of a fully human IgG1 lambda antibody; also called belimumab Fab fragment; Benlysta Fab; source: E. coli Top10F, periplasmic expression, purified (HisTrap, gel filtration)
[1]
  Kd: 1.22 nM
  koff: 0.000167 s⁻¹
  kon: 137000 M⁻¹ s⁻¹
[2]
  Kd: 3.79 nM
  koff: 5.59e-05 s⁻¹
  kon: 14800 M⁻¹ s⁻¹
[3]
  Kd: 2.34 nM
  koff: 0.000245 s⁻¹
  kon: 105000 M⁻¹ s⁻¹
[4]
  Kd: 1.45 nM
  koff: 0.000137 s⁻¹
  kon: 94400 M⁻¹ s⁻¹
[5]
  Kd: 14.1 nM
  koff: 0.00783 s⁻¹
  kon: 556000 M⁻¹ s⁻¹
[6]
  Kd: 4.34 nM
  koff: 0.000357 s⁻¹
  kon: 82200 M⁻¹ s⁻¹
[7]
  Kd: 7.77 nM
  koff: 0.00119 s⁻¹
  kon: 153000 M⁻¹ s⁻¹
[8]
  Kd: 2.85 nM
  koff: 0.000128 s⁻¹
  kon: 45000 M⁻¹ s⁻¹
[9]
  Kd: 2.64 nM
  koff: 0.000328 s⁻¹
  kon: 124000 M⁻¹ s⁻¹
[10]
  Kd: 1.45 nM
  koff: 0.000145 s⁻¹
  kon: 101000 M⁻¹ s⁻¹

B2: belimumab Fab (Fab, V domains shown)
VH: QVQLQQSGAEVKKPGSSVRVSCKASGGTFNNNAINWVRQAPGQGLEWMGGIIPMFGTAKYSQNFQGRVAITADESTGTASMELSSLRSEDTAVYYCARSRDLLLFPHHALSPWGRGTMVTVSS
VL: SSELTQDPAVSVALGQTVRVTCQGDSLRSYYASWYQQKPGQAPVLVIYGKNNRPSGIPDRFSGSSSGNTASLTITGAQAEDEADYYCSSRDSSGNHWVFGGGTELTVL
notes: heavy chain of the Fab of belimumab (fully human IgG1 lambda); in the deposited structures PDB 5Y9J and 5Y9K; lambda light chain of belimumab; also called Benlysta; belimumab Fab fragment; source: E. coli Top10F, periplasmic expression, purified (HisTrap, gel filtration)
[11]
  stoichiometry N: 1 BAFF protomer per Fab (printed 3:3)
